Measurements published in paper PMC7300015.

Legend:
[1] = molecular target: HKU2 spike glycoprotein ectodomain (residues 1-1066) (Rhinolophus bat coronavirus HKU2); assay: cryo-EM structure
[2] = molecular target: SADS-CoV spike glycoprotein ectodomain (residues 1-1068) (swine acute diarrhea syndrome coronavirus (SADS-CoV)); assay: cryo-EM structure

Question: “HKU2 spike glycoprotein ectodomain (residues 1-1066) (domain or fragment)” was tested. Which stoichiometry N [1] did it give?
Answer: The stoichiometry N was 3.

Question: How did the stoichiometry N [2] turn out when “SADS-CoV spike glycoprotein ectodomain (residues 1-1068) (domain or fragment)” was run?
Answer: The stoichiometry N was 3.
